This passage reports stoichiometry N (UPA per DPP9 dimer) results from article PMC9700037.

In this assay the target is His6-tev-DPP9 (UniProt Q86TI2). The assay can be described thus: SEC-MALS; co-eluting SEC fractions of FIIND, DPP9 and free UPA co-expressed in Sf9 and co-purified; 0.5-1.0 mg/ml, Superose 6 increase (10/300) GL, buffer A without glycerol. (In general: Size exclusion chromatography separates by hydrodynamic size, large species first.)
Sequence of His6-tev-DPP9 (Q86TI2 whole entry): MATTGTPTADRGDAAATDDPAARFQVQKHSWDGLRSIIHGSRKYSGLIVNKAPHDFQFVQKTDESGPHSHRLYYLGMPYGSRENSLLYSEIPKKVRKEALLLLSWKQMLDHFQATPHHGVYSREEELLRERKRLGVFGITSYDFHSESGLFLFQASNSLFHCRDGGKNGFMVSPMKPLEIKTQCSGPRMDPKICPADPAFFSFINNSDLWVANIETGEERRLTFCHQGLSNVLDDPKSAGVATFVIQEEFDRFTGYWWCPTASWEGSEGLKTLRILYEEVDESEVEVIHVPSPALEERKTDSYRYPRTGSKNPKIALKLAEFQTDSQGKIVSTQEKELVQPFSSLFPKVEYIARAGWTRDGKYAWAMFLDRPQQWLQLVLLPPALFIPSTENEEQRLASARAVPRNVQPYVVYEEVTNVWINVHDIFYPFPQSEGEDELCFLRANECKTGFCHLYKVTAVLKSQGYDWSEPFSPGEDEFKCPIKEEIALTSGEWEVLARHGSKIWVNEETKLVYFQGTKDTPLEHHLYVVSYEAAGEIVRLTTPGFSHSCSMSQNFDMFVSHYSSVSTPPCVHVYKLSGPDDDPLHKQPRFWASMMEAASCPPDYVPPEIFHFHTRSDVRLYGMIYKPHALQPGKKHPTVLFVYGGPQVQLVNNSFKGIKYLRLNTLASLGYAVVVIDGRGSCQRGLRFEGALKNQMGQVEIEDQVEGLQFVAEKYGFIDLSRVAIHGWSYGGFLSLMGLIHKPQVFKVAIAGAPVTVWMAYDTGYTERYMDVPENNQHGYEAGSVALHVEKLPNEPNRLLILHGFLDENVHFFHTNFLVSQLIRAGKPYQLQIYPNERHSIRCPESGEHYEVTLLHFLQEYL

Sequence of free UPA domain (from the SUMO-UPA construct) (domain or fragment) (Q9C000 whole entry, the tested form may be a part): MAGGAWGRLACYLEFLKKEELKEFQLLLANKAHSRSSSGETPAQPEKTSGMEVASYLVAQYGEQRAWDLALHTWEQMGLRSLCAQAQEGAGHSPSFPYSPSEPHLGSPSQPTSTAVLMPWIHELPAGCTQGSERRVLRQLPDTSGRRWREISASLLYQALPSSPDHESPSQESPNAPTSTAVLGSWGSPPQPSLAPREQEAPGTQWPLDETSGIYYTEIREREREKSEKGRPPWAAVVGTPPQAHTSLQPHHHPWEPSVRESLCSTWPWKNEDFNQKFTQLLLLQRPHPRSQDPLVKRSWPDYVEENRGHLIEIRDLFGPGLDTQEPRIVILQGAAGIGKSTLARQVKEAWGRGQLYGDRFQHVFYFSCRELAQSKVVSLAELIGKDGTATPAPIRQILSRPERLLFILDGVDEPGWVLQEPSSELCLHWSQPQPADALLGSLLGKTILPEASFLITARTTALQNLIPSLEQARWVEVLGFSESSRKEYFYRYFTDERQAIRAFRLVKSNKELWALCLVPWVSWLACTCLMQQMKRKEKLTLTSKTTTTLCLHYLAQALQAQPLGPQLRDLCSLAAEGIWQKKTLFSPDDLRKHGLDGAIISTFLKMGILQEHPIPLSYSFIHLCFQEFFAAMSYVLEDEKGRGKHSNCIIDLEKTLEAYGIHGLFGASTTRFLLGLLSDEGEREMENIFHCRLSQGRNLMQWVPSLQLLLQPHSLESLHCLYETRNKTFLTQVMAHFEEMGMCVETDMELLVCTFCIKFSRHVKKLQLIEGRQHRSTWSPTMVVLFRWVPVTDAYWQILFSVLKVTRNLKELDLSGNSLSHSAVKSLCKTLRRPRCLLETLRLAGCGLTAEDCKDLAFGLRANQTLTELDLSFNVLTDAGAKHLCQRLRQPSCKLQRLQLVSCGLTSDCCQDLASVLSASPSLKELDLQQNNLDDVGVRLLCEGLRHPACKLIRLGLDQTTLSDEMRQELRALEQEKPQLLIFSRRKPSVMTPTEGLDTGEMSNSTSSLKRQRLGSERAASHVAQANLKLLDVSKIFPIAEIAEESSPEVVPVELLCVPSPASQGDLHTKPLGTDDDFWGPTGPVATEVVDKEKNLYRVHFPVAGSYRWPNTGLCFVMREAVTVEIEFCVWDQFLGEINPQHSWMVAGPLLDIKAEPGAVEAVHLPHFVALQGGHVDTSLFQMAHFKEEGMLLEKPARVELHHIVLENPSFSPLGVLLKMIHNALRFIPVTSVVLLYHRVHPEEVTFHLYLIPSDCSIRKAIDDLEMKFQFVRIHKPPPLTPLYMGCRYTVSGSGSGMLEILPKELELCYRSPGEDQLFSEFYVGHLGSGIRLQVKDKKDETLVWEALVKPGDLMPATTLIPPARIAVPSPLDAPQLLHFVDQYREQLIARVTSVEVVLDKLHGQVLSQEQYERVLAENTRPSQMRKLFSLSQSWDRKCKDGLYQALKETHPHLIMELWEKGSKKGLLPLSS

For the substance “free UPA domain (from the SUMO-UPA construct) (domain or fragment)”, the stoichiometry N (UPA per DPP9 dimer) came to 1.
